Laboratory results reported in article PMC8221199, “Semisynthetic ‘designer’ p53 sheds light on a phosphorylation–acetylation relay†”.

Tests used:
p53rec [1] = target: T1, p53rec (UniProt P04637 1-393); experiment: competition; 1 uM competitor vs 20 nM labelled GADD45; EMSA: 0.4 uM p53 variant (0.1 uM tetramer), 20 nM 32P-DNA, 1 uM unlabelled competitor where used, 20 min at RT, native gel; a p53 369-383 peptide was synthesized for the EMSAs; buffer, salt and pH not in the material; conditions: protein: recombinant; tags: untagged; chain copies: 4; label: none (unlabelled)
T1 sequence (P04637 whole entry): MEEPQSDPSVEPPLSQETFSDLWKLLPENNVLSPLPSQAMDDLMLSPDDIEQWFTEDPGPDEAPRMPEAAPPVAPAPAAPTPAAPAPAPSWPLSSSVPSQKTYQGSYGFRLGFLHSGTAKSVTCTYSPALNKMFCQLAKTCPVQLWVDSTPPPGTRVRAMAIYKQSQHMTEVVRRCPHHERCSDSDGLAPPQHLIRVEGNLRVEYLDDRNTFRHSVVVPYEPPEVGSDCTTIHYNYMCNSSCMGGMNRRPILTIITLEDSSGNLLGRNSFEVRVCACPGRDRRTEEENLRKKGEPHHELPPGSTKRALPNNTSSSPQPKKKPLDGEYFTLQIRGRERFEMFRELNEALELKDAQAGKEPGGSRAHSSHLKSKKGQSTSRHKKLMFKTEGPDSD

p53rec [2] = target: T1, p53rec; experiment: EMSA; 0.4 uM p53 (0.1 uM tetramer), 20 nM DNA; EMSA: 0.4 uM p53 variant (0.1 uM tetramer), 20 nM 32P-DNA, 1 uM unlabelled competitor where used, 20 min at RT, native gel; a p53 369-383 peptide was synthesized for the EMSAs; buffer, salt and pH not in the material; conditions: protein: recombinant; tags: untagged; chain copies: 4; label: 32P

Binder | binding result (p53rec [1]) | binding result (p53rec [2])
randomized competitor (dsDNA) DNA 1: CCACCATACCTTCGATTATCGCGCCCACTC DNA 2: GAGTGGGCGCGATAATCGAAGGTATGGTGG | no binding | 
GADD45 target (dsDNA) DNA 1: GTACAGAACATGTCTAAGCATGCTGGGGAC DNA 2: GTCCCCAGCATGCTTAGACATGTTCTGTAC |  | binds
GADD45 unlabelled competitor (dsDNA) DNA 1: GTACAGAACATGTCTAAGCATGCTGGGGAC DNA 2: GTCCCCAGCATGCTTAGACATGTTCTGTAC | binds | 
